Results published in patent US20210277101A1 (UNIVERSIT LAVAL, published 2021).

How the values were obtained:
[1] = target: T1, S100A9 C-term (C) peptide (human); test: dot blot on PVDF
T1 construct: also called C-terminal peptide
T1 peptide: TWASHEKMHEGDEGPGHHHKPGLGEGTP
Procedure: FIG. 7 illustrates that 6B4 recognizes the C-terminal peptide of S100A9. Recombinant S100A8 and S100A9 (1 μg), PBS1×, N-terminal (N), Hinge (H) and C-terminal (C) peptides (10 and 50 μg) were put onto PVDF membrane to perform dot blot analysis using the mAb 6B4.
A dot blot was first performed to verify the ability of the mAb 6B4 to recognize these regions of S100A9. Briefly, 1 μg of recombinant S100A9 or S100A8 (negative control), and 10 and 50 μg of S100A9 peptides were deposited on PVDF membrane. The dried membrane was then blocked with TBS/0.1% Tween/milk 5% 30 min at room temperature under gentle agitation and labelled with 1 μg/ml of 6B4 mAb for 1 hr at RT. The membrane was extensively washed with TBS/0.1% Tween, then labelled with goat anti-mouse ( 1/20 000) in blocking buffer for 1 hr at RT under gentle agitation. The membrane was then extensively washed and visualized by enhanced chemiluminescence (ECL) as described by the manufacturer (PerkinElmer).

[2] = target: T2, S100A9 peptide C7 (human); test: direct ELISA on coated peptides
T2 construct: also called 10 last amino acid of the C-terminal region of S100A9
T2 peptide: HKPGLGEGTP

[3] = target: T3, S100A9 peptide C7a (human); test: direct ELISA on coated peptides
T3 peptide: PGLGEGTP

Measured: binding result

B1: mouse monoclonal antibody 6B4 (antibody, IgG1, V domains shown)
VH: QVQLQQPGSELVRPGASVKLSCKASGYTFTTYWIHWVRQRPGQGLEWIGNIYPGGDSSNYDEKVKSRATLTVDTSSSTAYMQLSSLTSEDSAVYYCSRWGIWGQGTLVTVSA
VL: ENVLTQSPAIMSASPGEKVTMTCSARSSVSYVHWYQQKSNTSPKLWIYDTSKLASGVPGRFSGSGSGNSYSLTISSMEAEDVATYYCFQGSGYPLTFGAGTKLELK
notes: also called mAb 6B4; 6B4 mAb
binds: all assays above
